Data published in IntAct's records for PubMed 20181956.

B1: Trinucleotide repeat-containing gene 6C protein (Homo sapiens), Q9HCJ0 (parent)
chain: MEEKKKKKQEEKKKKEGAQKKAADQKTKVPEPTKTCSSQPQPAGTSTSTSTSTISSSNNGKRASASGQQPAASRYLPREVPPRFRQQEQKQLLKRGQPLPTGTLTSVSPTQGAGPAGVSPPPLPGAGTQHHPSKLQPDLSHSGLADHYENSHWGQQPTYRSEANCSWDKVIIDRTDKEAWPSITGTETESASECTTDTDSASNCGSENSSMATGSAQGNFTGHTKKTNGNNGTNGALVQSPSNQSALGAGGANSNGSAARVWGVATGSSSGLAHCSVSGGDGKMDTMIGDGRSQNCWGASNSNAGINLNLNPNANPAAWPVLGHEGTVATGNPSSICSPVSAIGQNMGNQNGNPTGTLGAWGNLLPQESTEPQTSTSQNVSFSAQPQNLNTDGPNNTNPMNSSPNPINAMQTNGLPNWGMAVGMGAIIPPHLQGLPGANGSSVSQVSGGSAEGISNSVWGLSPGNPATGNSNSGFSQGNGDTVNSALSAKQNGSSSAVQKEGSGGNAWDSGPPAGPGILAWGRGSGNNGVGNIHSGAWGHPSRSTSNGVNGEWGKPPNQHSNSDINGKGSTGWESPSVTSQNPTVQPGGEHMNSWAKAASSGTTASEGSSDGSGNHNEGSTGREGTGEGRRRDKGIIDQGHIQLPRNDLDPRVLSNTGWGQTPVKQNTAWEFEESPRSERKNDNGTEAWGCAATQASNSGGKNDGSIMNSTNTSSVSGWVNAPPAAVPANTGWGDSNNKAPSGPGVWGDSISSTAVSTAAAAKSGHAWSGAANQEDKSPTWGEPPKPKSQHWGDGQRSNPAWSAGGGDWADSSSVLGHLGDGKKNGSGWDADSNRSGSGWNDTTRSGNSGWGNSTNTKANPGTNWGETLKPGPQQNWASKPQDNNVSNWGGAASVKQTGTGWIGGPVPVKQKDSSEATGWEEPSPPSIRRKMEIDDGTSAWGDPSNYNNKTVNMWDRNNPVIQSSTTTNTTTTTTTTTSNTTHRVETPPPHQAGTQLNRSPLLGPVSSGWGEMPNVHSKTENSWGEPSSPSTLVDNGTAAWGKPPSSGSGWGDHPAEPPVAFGRAGAPVAASALCKPASKSMQEGWGSGGDEMNLSTSQWEDEEGDVWNNAASQESTSSCSSWGNAPKKGLQKGMKTSGKQDEAWIMSRLIKQLTDMGFPREPAEEALKSNNMNLDQAMSALLEKKVDVDKRGLGVTDHNGMAAKPLGCRPPISKESSVDRPTFLDKDGGLVEEPTPSPFLPSPSLKLPLSHSALPSQALGGIASGLGMQNLNSSRQIPSGNLGMFGNSGAAQARTMQQPPQPPVQPLNSSQPSLRAQVPQFLSPQVQAQLLQFAAKNIGLNPALLTSPINPQHMTMLNQLYQLQLAYQRLQIQQQMLQAQRNVSGSMRQQEQQVARTITNLQQQIQQHQRQLAQALLVKQPPPPPPPPHLSLHPSAGKSAMDSFPSHPQTPGLPDLQTKEQQSSPNTFAPYPLAGLNPNMNVNSMDMTGGLSVKDPSQSQSRLPQWTHPNSMDNLPSAASPLEQNPSKHGAIPGGLSIGPPGKSSIDDSYGRYDLIQNSESPASPPVAVPHSWSRAKSDSDKISNGSSINWPPEFHPGVPWKGLQNIDPENDPDVTPGSVPTGPTINTTIQDVNRYLLKSGGSSPPSSQNATLPSSSAWPLSASGYSSSFSSIASAPSVAGKLSDIKSTWSSGPTSHTQASLSHELWKVPRNSTAPTRPPPGLTNPKPSSTWGASPLGWTSSYSSGSAWSTDTSGRTSSWLVLRNLTPQIDGSTLRTLCLQHGPLITFHLNLTQGNAVVRYSSKEEAAKAQKSLHMCVLGNTTILAEFAGEEEVNRFLAQGQALPPTSSWQSSSASSQPRLSAAGSSHGLVRSDAGHWNAPCLGGKGSSELLWGGVPQYSSSLWGPPSADDSRVIGSPTPLTTLLPGDLLSGESL

Variants of: B1
Details: with pabp1_human PABPC1, P11940
pabp1_human PABPC1, P11940, sequence (P11940 whole entry): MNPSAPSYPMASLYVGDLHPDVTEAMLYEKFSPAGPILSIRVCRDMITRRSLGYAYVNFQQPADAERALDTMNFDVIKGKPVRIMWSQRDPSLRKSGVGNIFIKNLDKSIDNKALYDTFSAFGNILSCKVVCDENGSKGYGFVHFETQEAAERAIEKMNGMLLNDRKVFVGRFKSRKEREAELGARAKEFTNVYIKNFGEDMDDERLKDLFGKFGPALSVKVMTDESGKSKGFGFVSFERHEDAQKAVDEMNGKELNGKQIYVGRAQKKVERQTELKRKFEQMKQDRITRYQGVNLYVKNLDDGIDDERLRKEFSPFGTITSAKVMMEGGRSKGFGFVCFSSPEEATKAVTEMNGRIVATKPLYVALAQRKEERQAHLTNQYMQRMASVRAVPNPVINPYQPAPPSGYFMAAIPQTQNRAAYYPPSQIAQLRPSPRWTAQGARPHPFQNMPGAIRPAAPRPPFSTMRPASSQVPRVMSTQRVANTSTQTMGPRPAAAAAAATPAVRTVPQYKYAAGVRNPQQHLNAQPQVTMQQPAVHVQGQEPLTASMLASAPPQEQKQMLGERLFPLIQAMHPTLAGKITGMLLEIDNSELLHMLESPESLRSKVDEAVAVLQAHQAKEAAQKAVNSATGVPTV

Variant | effect of a mutation on the interaction
W1602A | decreasing interaction
G1599A | decreasing interaction

Variants of: B1
Details: with pabp1_human PABPC1, P11940
Remark: another data set of the same source

Variant | effect of a mutation on the interaction
W1592A | decreasing interaction
P1601A | decreasing interaction
P1593A | decreasing interaction
F1596A | disrupting interaction
